Laboratory results taken from patent US20220074937A1 (BIOSWAN LABORATORIES, published 2022).

How the values were obtained:
[1] = target: T1, FMC63 antibody (murine anti-CD19 monoclonal antibody, Merck & Millipore MAB1794); assay: ELISA, FMC63 antibody coated
T1 construct: Whole mouse monoclonal antibody coated on the ELISA plate; also called CD19 antibody
Procedure: (§1) Blocking was then performed with PBST (PBS containing 0.05% Tween 20) containing 5% BSA at 300 μL per well. […] The plate was washed with PBST and then incubated at room temperature for 30 minutes with goat anti-rabbit IgG polyclonal antibody coupled with horseradish peroxidase (HRP).

[2] = target: T2, CD19 CAR containing FMC63 scFv, on the cell surface (CD19 CAR-T cells, CD19 CAR-293T cells); assay: flow cytometry on CD19 CAR-293T cells
T2 construct: Chimeric antigen receptor brought into T cells or 293T cells by lentivirus; also called FMC63 scFv CD19 CAR; CD19 CAR scFv on the cell surface; not shown: hinge, transmembrane and intracellular signalling regions of the CAR
T2 sequence (chain, as listed by the source): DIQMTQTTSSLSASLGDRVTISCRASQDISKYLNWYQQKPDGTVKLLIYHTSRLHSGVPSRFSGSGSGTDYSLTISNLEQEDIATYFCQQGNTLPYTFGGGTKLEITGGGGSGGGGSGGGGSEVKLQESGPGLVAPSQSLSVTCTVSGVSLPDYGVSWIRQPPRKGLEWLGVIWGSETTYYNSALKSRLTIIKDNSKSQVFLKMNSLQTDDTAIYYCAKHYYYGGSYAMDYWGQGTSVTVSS
Procedure: (§2) T cells were infected with CD19 CAR lentivirus or BCMA CAR lentivirus to obtain corresponding CAR-T cells. […] 2×10⁵ cells were suspended in 50 μL FACS buffer. 50 μL antibody solution was then added to 50 μL cell suspension and the mixture was incubated on ice for 30 minutes. The cells were then washed twice with cold FACS buffer. […] Table 1) and the mixture was incubated on ice for 30 minutes, after that the cells were washed twice with cold FACS buffer. The cells were resuspended in 200 μL FACS buffer and detected by flow cytometry.
(§3) CD19 CAR-293T cells were obtained by infecting 293T cells with CD19 CAR lentivirus. […] 2×10⁵ CD19 CAR-293T cells were suspended in 50 μL FACS buffer.

[3] = target: T3, FMC63 scFv-His tag recombinant protein; assay: ELISA, FMC63 scFv coated
T3 construct: Expressed in 293T cells, purified on Ni-NTA; also called FMC63 scFv recombinant protein; CD19 CAR scFv recombinant protein
T3 sequence (scFv, as listed by the source): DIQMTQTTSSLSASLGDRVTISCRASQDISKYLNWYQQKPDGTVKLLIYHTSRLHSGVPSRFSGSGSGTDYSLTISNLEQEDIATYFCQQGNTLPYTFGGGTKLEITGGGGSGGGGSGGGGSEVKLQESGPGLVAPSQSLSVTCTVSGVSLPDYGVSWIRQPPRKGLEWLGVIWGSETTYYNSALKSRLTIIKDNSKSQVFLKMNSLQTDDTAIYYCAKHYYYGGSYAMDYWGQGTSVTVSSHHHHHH
Procedure: as §1

[4] = target: T3, FMC63 scFv-His tag recombinant protein; assay: BLI (Fortebio Octet), FMC63 scFv loaded on the sensor, R19mab at 15.6, 7.8, 3.9, 1.95 and 0.975 nM, 1:1 model; the same value stands in rows 1 to 5 of the drawn table (column Kd (M)); the text rounds it to 43 pM
Excerpt: (§4) In short, the biosensor was balanced offline in PBS buffer for 600 seconds, and then detected online for 60 seconds to establish a baseline. […] Data Analysis 6.2 evaluation software was used to analyze the data, and a 1:1 combination model was used for kinetic analysis.

[5] = target: T3, FMC63 scFv-His tag recombinant protein; assay: BLI (Fortebio Octet), FMC63 scFv on the sensor, R19mab 15.6-0.975 nM, 1:1 model
Excerpt: as §4

[6] = target: T2, CD19 CAR containing FMC63 scFv, on the …; assay: flow cytometry (MFI) on CD19 CAR-293T cells, R19mab titrated; printed beside EC50 = 1.58 nM, which the text gives
Procedure: as §2, §3

B1: rabbit monoclonal antibody R19mab against FMC63 scFv (antibody, V domains shown)
VH: QSLEESGGRLVTPGTPLTLTCTVSGIDFRNYGVSWVRQAPGKGLEWIGIFSSSGSTYYATWAKGRFTISKASSTTVDLKMTSLTTEDTATYFCARHPGPTNGWKLWGPGTLVTVSS
VL: DVVMTQTPASVEAPVGGTVTIKCQASQSVSGYCSWYQQKPGQPPKLLIYRASTLESGVPSRFSGSGSGTDFTLTISDLECADAATYYCQSNYNSGSSSSAAAFGGGTEVVVK
notes: Rabbit monoclonal IgG, expressed in 293T cells and purified on Protein A; also called No.0231 (rabbit B cell clone)
EC50 [1]: 0.253 nM | EC50 [2]: 1.58 nM | EC50 [3]: 0.307 nM | Kd [4]: 0.0431 nM | Kd [5]: 0.043 nM | EC50 [6]: 0.237 µg/mL
